Assay results taken from patent US11795460B2, “Compositions and methods for TTR gene editing and treating ATTR amyloidosis” (Intellia Therapeutics, Inc., priority 2017, dated 2023).
Strand notation (5' to 3'): a small letter for the sugar, then the base; units joined by * are phosphorothioate-linked, units joined directly phosphodiester-linked; [ ] holds rarer units or linkages, { } end groups; capitals alone tell only the bases. m = 2'-O-methyl; r = 2'-OH (RNA)

B1: G000572: TTR sgRNA modified sequence, Human, SEQ ID No. 113; guide sequence of CR003385 (nucleic acid)
guide: mC*mC*mC*rCrUrArCrUrCrCrUrArUrUrCrCrArCrCrArGrUrUrUrUrArGrAmGmCmUmAmGmAmAmAmUmAmGmCrArArGrUrUrArArArArUrArArGrGrCrUrArGrUrCrCrGrUrUrArUrCrAmAmCmUmUmGmAmAmAmAmAmGmUmGmGmCmAmCmCmGmAmGmUmCmGmGmUmGmCmU*mU*mU*mU
B2: G000500: TTR sgRNA modified sequence, Human, SEQ ID No. 107; guide sequence of CR003337 (nucleic acid)
guide: mC*mC*mA*rGrUrCrCrArGrCrArArGrGrCrArGrArGrGrGrUrUrUrUrArGrAmGmCmUmAmGmAmAmAmUmAmGmCrArArGrUrUrArArArArUrArArGrGrCrUrArGrUrCrCrGrUrUrArUrCrAmAmCmUmUmGmAmAmAmAmAmGmUmGmGmCmAmCmCmGmAmGmUmCmGmGmUmGmCmU*mU*mU*mU
B3: G000493: TTR sgRNA modified sequence, Human, SEQ ID No. 100; guide sequence of CR003368 (nucleic acid)
guide: mA*mA*mG*rUrGrCrCrUrUrCrCrArGrUrArArGrArUrUrGrUrUrUrUrArGrAmGmCmUmAmGmAmAmAmUmAmGmCrArArGrUrUrArArArArUrArArGrGrCrUrArGrUrCrCrGrUrUrArUrCrAmAmCmUmUmGmAmAmAmAmAmGmUmGmGmCmAmCmCmGmAmGmUmCmGmGmUmGmCmU*mU*mU*mU
B4: G000484: TTR sgRNA modified sequence, Human, SEQ ID No. 91; guide sequence of CR003367 (nucleic acid)
guide: mA*mG*mA*rCrArCrCrArArArUrCrUrUrArCrUrGrGrArGrUrUrUrUrArGrAmGmCmUmAmGmAmAmAmUmAmGmCrArArGrUrUrArArArArUrArArGrGrCrUrArGrUrCrCrGrUrUrArUrCrAmAmCmUmUmGmAmAmAmAmAmGmUmGmGmCmAmCmCmGmAmGmUmCmGmGmUmGmCmU*mU*mU*mU
B5: G000495: TTR sgRNA modified sequence, Human, SEQ ID No. 102; guide sequence of CR003343 (nucleic acid)
guide: mC*mA*mG*rArGrGrArCrArCrUrUrGrGrArUrUrCrArCrGrUrUrUrUrArGrAmGmCmUmAmGmAmAmAmUmAmGmCrArArGrUrUrArArArArUrArArGrGrCrUrArGrUrCrCrGrUrUrArUrCrAmAmCmUmUmGmAmAmAmAmAmGmUmGmGmCmAmCmCmGmAmGmUmCmGmGmUmGmCmU*mU*mU*mU
B6: G000492: TTR sgRNA modified sequence, Human, SEQ ID No. 99; guide sequence of CR003342 (nucleic acid)
guide: mC*mU*mU*rCrUrCrUrArCrArCrCrCrArGrGrGrCrArCrGrUrUrUrUrArGrAmGmCmUmAmGmAmAmAmUmAmGmCrArArGrUrUrArArArArUrArArGrGrCrUrArGrUrCrCrGrUrUrArUrCrAmAmCmUmUmGmAmAmAmAmAmGmUmGmGmCmAmCmCmGmAmGmUmCmGmGmUmGmCmU*mU*mU*mU
B7: G000567: TTR sgRNA modified sequence, Human, SEQ ID No. 109; guide sequence of CR003352 (nucleic acid)
guide: mG*mA*mA*rArGrGrCrUrGrCrUrGrArUrGrArCrArCrCrGrUrUrUrUrArGrAmGmCmUmAmGmAmAmAmUmAmGmCrArArGrUrUrArArArArUrArArGrGrCrUrArGrUrCrCrGrUrUrArUrCrAmAmCmUmUmGmAmAmAmAmAmGmUmGmGmCmAmCmCmGmAmGmUmCmGmGmUmGmCmU*mU*mU*mU
B8: G000491: TTR sgRNA modified sequence, Human, SEQ ID No. 98; guide sequence of CR003338 (nucleic acid)
guide: mA*mU*mA*rCrCrArGrUrCrCrArGrCrArArGrGrCrArGrGrUrUrUrUrArGrAmGmCmUmAmGmAmAmAmUmAmGmCrArArGrUrUrArArArArUrArArGrGrCrUrArGrUrCrCrGrUrUrArUrCrAmAmCmUmUmGmAmAmAmAmAmGmUmGmGmCmAmCmCmGmAmGmUmCmGmGmUmGmCmU*mU*mU*mU
B9: G000568: TTR sgRNA modified sequence, Human, SEQ ID No. 110; guide sequence of CR003391 (nucleic acid)
guide: mG*mG*mC*rUrGrUrCrGrUrCrArCrCrArArUrCrCrCrArGrUrUrUrUrArGrAmGmCmUmAmGmAmAmAmUmAmGmCrArArGrUrUrArArArArUrArArGrGrCrUrArGrUrCrCrGrUrUrArUrCrAmAmCmUmUmGmAmAmAmAmAmGmUmGmGmCmAmCmCmGmAmGmUmCmGmGmUmGmCmU*mU*mU*mU
B10: G000490: TTR sgRNA modified sequence, Human, SEQ ID No. 97; guide sequence of CR003366 (nucleic acid)
guide: mA*mA*mA*rUrArGrArCrArCrCrArArArUrCrUrUrArCrGrUrUrUrUrArGrAmGmCmUmAmGmAmAmAmUmAmGmCrArArGrUrUrArArArArUrArArGrGrCrUrArGrUrCrCrGrUrUrArUrCrAmAmCmUmUmGmAmAmAmAmAmGmUmGmGmCmAmCmCmGmAmGmUmCmGmGmUmGmCmU*mU*mU*mU
B11: G000570: TTR sgRNA modified sequence, Human, SEQ ID No. 111; guide sequence of CR003347 (nucleic acid)
guide: mC*mA*mU*rUrGrArUrGrGrCrArGrGrArCrUrGrCrCrUrGrUrUrUrUrArGrAmGmCmUmAmGmAmAmAmUmAmGmCrArArGrUrUrArArArArUrArArGrGrCrUrArGrUrCrCrGrUrUrArUrCrAmAmCmUmUmGmAmAmAmAmAmGmUmGmGmCmAmCmCmGmAmGmUmCmGmGmUmGmCmU*mU*mU*mU
B12: G000485: TTR sgRNA modified sequence, Human, SEQ ID No. 92; guide sequence of CR003336 (nucleic acid)
guide: mC*mC*mU*rCrCrUrCrUrGrCrCrUrUrGrCrUrGrGrArCrGrUrUrUrUrArGrAmGmCmUmAmGmAmAmAmUmAmGmCrArArGrUrUrArArArArUrArArGrGrCrUrArGrUrCrCrGrUrUrArUrCrAmAmCmUmUmGmAmAmAmAmAmGmUmGmGmCmAmCmCmGmAmGmUmCmGmGmUmGmCmU*mU*mU*mU
B13: G000497: TTR sgRNA modified sequence, Human, SEQ ID No. 104; guide sequence of CR003335 (nucleic acid)
guide: mC*mU*mG*rCrUrCrCrUrCrCrUrCrUrGrCrCrUrUrGrCrGrUrUrUrUrArGrAmGmCmUmAmGmAmAmAmUmAmGmCrArArGrUrUrArArArArUrArArGrGrCrUrArGrUrCrCrGrUrUrArUrCrAmAmCmUmUmGmAmAmAmAmAmGmUmGmGmCmAmCmCmGmAmGmUmCmGmGmUmGmCmU*mU*mU*mU
B14: G000501: TTR sgRNA modified sequence, Human, SEQ ID No. 108; guide sequence of CR005300 (nucleic acid)
guide: mU*mC*mA*rCrArGrArArArCrArCrUrCrArCrCrGrUrArGrUrUrUrUrArGrAmGmCmUmAmGmAmAmAmUmAmGmCrArArGrUrUrArArArArUrArArGrGrCrUrArGrUrCrCrGrUrUrArUrCrAmAmCmUmUmGmAmAmAmAmAmGmUmGmGmCmAmCmCmGmAmGmUmCmGmGmUmGmCmU*mU*mU*mU
B15: G000496: TTR sgRNA modified sequence, Human, SEQ ID No. 103; guide sequence of CR005304 (nucleic acid)
guide: mG*mG*mC*rCrGrUrGrCrArUrGrUrGrUrUrCrArGrArArGrUrUrUrUrArGrAmGmCmUmAmGmAmAmAmUmAmGmCrArArGrUrUrArArArArUrArArGrGrCrUrArGrUrCrCrGrUrUrArUrCrAmAmCmUmUmGmAmAmAmAmAmGmUmGmGmCmAmCmCmGmAmGmUmCmGmGmUmGmCmU*mU*mU*mU
B16: G000571: TTR sgRNA modified sequence, Human, SEQ ID No. 112; guide sequence of CR005301 (nucleic acid)
guide: mG*mU*mC*rArCrArGrArArArCrArCrUrCrArCrCrGrUrGrUrUrUrUrArGrAmGmCmUmAmGmAmAmAmUmAmGmCrArArGrUrUrArArArArUrArArGrGrCrUrArGrUrCrCrGrUrUrArUrCrAmAmCmUmUmGmAmAmAmAmAmGmUmGmGmCmAmCmCmGmAmGmUmCmGmGmUmGmCmU*mU*mU*mU
B17: G000487: TTR sgRNA modified sequence, Human, SEQ ID No. 94; guide sequence of CR003357 (nucleic acid)
guide: mU*mU*mC*rUrUrUrGrGrCrArArCrUrUrArCrCrCrArGrGrUrUrUrUrArGrAmGmCmUmAmGmAmAmAmUmAmGmCrArArGrUrUrArArArArUrArArGrGrCrUrArGrUrCrCrGrUrUrArUrCrAmAmCmUmUmGmAmAmAmAmAmGmUmGmGmCmAmCmCmGmAmGmUmCmGmGmUmGmCmU*mU*mU*mU
B18: G000498: TTR sgRNA modified sequence, Human, SEQ ID No. 105; guide sequence of CR003359 (nucleic acid)
guide: mA*mG*mU*rGrArGrUrCrUrGrGrArGrArGrCrUrGrCrArGrUrUrUrUrArGrAmGmCmUmAmGmAmAmAmUmAmGmCrArArGrUrUrArArArArUrArArGrGrCrUrArGrUrCrCrGrUrUrArUrCrAmAmCmUmUmGmAmAmAmAmAmGmUmGmGmCmAmCmCmGmAmGmUmCmGmGmUmGmCmU*mU*mU*mU

How the values were obtained:
TTR [1] = assay: TTR editing in HepG2 cells transfected with Spy Cas9 mRNA and dgRNAs (Table 6); assay type: cell-based, human; conditions: HepG2 cells co-transfected with Spy Cas9 mRNA (SEQ ID NO:2) and dgRNAs
Method in brief: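 HepG2 cells were transfected sequentially by lipofection with Spy Cas9 mRNA (100 ng), then crRNA plus tracer RNA (25 nM each), and harvested at 24, 48 or 72 h. Editing was measured by amplicon NGS at the TTR target site as the fraction of reads with indels or substitutions.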

off-target genomic sites = assay: Off-target oligo insertion based assay in HEK293_Cas9 cells, dgRNAs and sgRNAs (Tables 23, 24); assay type: cell-based, human; conditions: for # Sites in HekCas9 cells (Example 5): Table 30, TTR sgRNAs, repeated from Example 5 for comparison
Method in brief: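 In HEK293 cells constitutively expressing Spy Cas9, crRNA (15 nM) plus trRNA (15 nM), or modified sgRNAs, were lipofected with donor oligo (10 nM). Genomic DNA was collected at 24 h, and oligo-insertion libraries were sequenced on MiSeq/HiSeq to map potential off-target cleavage sites.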

TTR [2] = assay: TTR editing in primary human hepatocytes transfected with Spy Cas9 protein (RNP) loaded with dgRNAs (Table 8); assay type: cell-based; conditions: dgRNA transfected with Spy Cas9 protein (RNP)
Method in brief: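 Primary human hepatocytes were lipofected (RNAiMAX) with RNP of Spy Cas9 (10 nM) plus pre-annealed crRNA (10 nM) and trRNA (10 nM) and harvested 24, 48 or 72 h later. Target-site amplicons were sequenced on Illumina MiSeq and aligned to hg38; percent editing = reads with indels or substitutions over total reads.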

[3] = Table 24, TTR sgRNAs in HekCas9 cells, insertion detection method

Molecule | # Sites (off-target integration sites detected) (off-target genomic sites; [3]) | # Sites in HekCas9 cells (Example 5) (off-target genomic sites) | further results
AAAGGCUGCUGAUGACACCU (tested as dual guide RNA, chemistry not given here) [CR003353] | – | – | Avg % Deletion (TTR [1]): 3.68%; Avg % Edit (TTR [1]): 60.40%; Avg % Insert (TTR [1]): 56.71%; # Sites (off-target integration sites detected) (off-target genomic sites; Table 23, TTR dgRNAs in HekCas9 cells, oligo insertion based assay): 2; Avg % Deletion (TTR [2]): 2.16%; Avg % Edit (TTR [2]): 61.54%; Avg % Insert (TTR [2]): 59.38%
B1 | 15 | 15 | –
B2 | 46 | 46 | –
B3 | 7 | 7 | –
B4 | 7 | 7 | –
B5 | 13 | 13 | –
B6 | 97 | 97 | –
B7 | 9 | 9 | –
B8 | 28 | 28 | –
B9 | 937 | 936 | –
B10 | 12 | 12 | –
B11 | 19 | 19 | –
B12 | 22 | 22 | –
B13 | 26 | 26 | –
B14 | 4 | 4 | –
B15 | 1 | 1 | –
B16 | 16 | 16 | –
B17 | 14 | 14 | –
B18 | 82 | 82 | –
